{"source": "patent US20080242590A1", "about": "“New Method 706” (ASTRAZENECA AB, priority 2007, published 2008)", "molecules": {"B1": {"name": "Fc-Neprilysin: extracellular domain of human Neprilysin fused to the human IgG2 Fc domain (including hinge), Fc at N-terminus; SEQ ID NO 11 (protein)", "chain": "ERKCCVECPPCPAPPVAGPSVFLFPPKPKDTLMISRTPEVTCVVVDVSHEDPEVQFNWYVDGVEVHNAKTKPREEQFNSTFRVVSVLTVVHQDWLNGKEYKCKVSNKGLPAPIEKTISKTKGQPREPQVYTLPPSREEMTKNQVSLTCLVKGFYPSDIAVEWESNGQPENNYKTTPPMLDSDGSFFLYSKLTVDKSRWQQGNVFSCSVMHEALHNHYTQKSLSLSPGKYDDGICKSSDCIKSAARLIQNMDATTEPCTDFFKYACGGWLKRNVIPETSSRYGNFDILRDELEVVLKDVLQEPKTEDIVAVQKAKALYRSCINESAIDSRGGEPLLKLLPDIYGWPVATENWEQKYGASWTAEKAIAQLNSKYGKKVLINLFVGTDDKNSVNHVIHIDQPRLGLPSRDYYECTGIYKEACTAYVDFMISVARLIRQEERLPIDENQLALEMNKVMELEKEIANATAKPEDRNDPMLLYNKMTLAQIQNNFSLEINGKPFSWLNFTNEIMSTVNISITNEEDVVVYAPEYLTKLKPILTKYSARDLQNLMSWRFIMDLVSSLSRTYKESRNAFRKALYGTTSETATWRRCANYVNGNMENAVGRLYVEAAFAGESKHVVEDLIAQIREVFIQTLDDLTWMDAETKKRAEEKALAIKERIGYPDDIVSNDNKLNNEYLELNYKEDEYFENIIQNLKFSQSKQLKKLREKVDKDEWISGAAVVNAFYSSGRNQIVFPAGILQPPFFSAQQSNSLNYGGIGMVIGHEITHGFDDNGRNFNKDGDLVDWWTQQSASNFKEQSQCMVYQYGNFSWDLAGGQHLNGINTLGENIADNGGLGQAYRAYQNYIKKNGEEKLLPGLDLNHKQLFFLNFAQVWCGTYRPEYAVNSIKTDVHSPGNFRIIGTLQNSAEFSEAFHCRKNSYMNPEKKCRVW"}}, "key": {"[1]": {"tested_on": "fluorogenic peptide substrate V—Mca-Arg-Pro-Gly-Phe-Ser-Ala-Phe-Lys(Dnp)-OH", "assay": "Neprilysin enzyme activity FRET assay, cell media", "type": "biochemical", "description": "The Neprilysin enzymatic activity was determined in a fluorescence resonance energy transfer (FRET) assay. Recombinant Human Neprilysin (R&D Systems), culture medium from Neprilysin or Fc-Neprilysin producing cells (AZ Sodertalje) or purified Neprilysin or Fc-Neprilysin was added into 96-well plate containing 10 μM of fluorogenic peptide substrate V—Mca-Arg-Pro-Gly-Phe-Ser-Ala-Phe-Lys(Dnp)-OH (R&D Systems). The final concentration of the control recombinant human Neprilysin was 0.1 or 0.25 μg/ml. 10 μM of Neprilysin inhibitor phosphoramidone (BIOMOL) was added into some wells in order to control the specificity of the signal in the assay and verify the specific Neprilysin activity. Following addition of all components to wells, plate was immediately placed into a fluorescent plate reader (Ascent) and signal was recorded for every minute for 20 minutes at the excitation 340 nm and emission 405 nm. The activity of enzyme was evaluated by calculating the velocity of reaction−Slope coefficient=ΣΔRFU/Δt. In order to compare the specific activity of the commercial recombinant Neprilysin and Fc-Neprilysin fusion protein, we introduced the specific activity coefficient, which is calculated according to this formula: Specific activity=slope coefficient/pmol of Neprilysin or monomer of Fc-Neprilysin in assay. […]"}, "mouse Aβ40": {"tested_on": "mouse Aβ40", "assay": "Mouse Aβ40 in plasma, time and dose response 1.5 and 3 hours (Example 24)", "type": "in vivo, C57BL/6 mice", "description": "The objective with this study was to evaluate the time and dose-response effect of hFc-Nep in plasma of female C57BL/6 mice after an acute treatment. The specific purpose is to find an effect on plasma Aβ40 and to correlate effect to exposure level of hFc-Nep in plasma. The γ-secretase inhibitor M-550426 is included as a positive control.\n13 weeks old female C57BL/6 mice (10 mice/group) received vehicle or hFc-Nep at 1 or 5 mg/kg as a single intravenous injection. M-550426 was administrated per orally at 300 μmol/kg 3 hours before termination. A blank group was also included in the study.\nBlood was sampled from vehicle- and compound-treated animals at 1.5 and 3 hours after dose. Blood was withdrawn from anaesthetized mice by heart puncture into pre-chilled microtainer tubes containing EDTA. Blood samples were immediately put on ice prior to centrifugation. Plasma was prepared by centrifugation for 10 minutes at approximately 3000×g at +4° C. within 20 minutes from sampling. After blood sampling, mice were terminated. […] Mouse Aβ40 levels in plasma were analysed by commercial ELISA kit obtained from Biosource. The concentrations of Fc-Nep in plasma and in the formulations were assayed according to the procedures described in Example 27."}, "[2]": {"assay": "Plasma exposure (Example 23)", "type": "in vivo, APPSWE-transgenic mice", "settings": "for Mean plasma exposure: 1.5 hours; for Plasma exposure: 3 hours", "description": "The Fc-Nep fusion protein was developed to improve the pharmacokinetic entities of neprilysin with the specific aims to reduce clearance and improve half-life. To test this we have administrated a single i.v. dose of either 1 mg/kg commercial neprilysin or 1 alternatively 5 mg/kg in-house produced Fc-Nep to mice. At set times after dosing blood samples were drawn from the tail vein or by heart puncture at termination. Upon sampling into tubes containing EDTA the aliquots were put on ice. Plasma was prepared by centrifugation within 15 minutes of sampling (typically 1500 g at 4° C. for 10 min) and immediately frozen. Plasma concentrations of Fc-Nep and neprilysin were determined via immunoassays using either anti-Nep for commercial neprilysin or anti-human IgG for Fc-Nep as capture antibodies while both substances were detected via an anti-Nep antibody. Pharmacokinetic parameters are calculated using a software package (WinNonlin, Pharsight Corporation, USA) and in this example experiment the calculated half-life had increased from about 5 minutes for Nep to about 20 hours for Fc-Nep.\n25-31 weeks old female APPSWE-transgenic mice (10 mice/group) received vehicle or the Fc-Nep at 1 or 5 mg/kg as a single intravenous injections. As a reference compound, 300 μmol/kg of the γ-secretase inhibitor M-550426 was used and these animals was treated in 3 hours (4 mice). […] Blood was sampled from vehicle- and compound-treated animals at 1.5 and 3 hours after dose. Blood was withdrawn from anaesthetized mice by heart puncture into pre-chilled microtainer tubes containing EDTA. Blood samples were immediately put on ice prior to centrifugation. Plasma was prepared by centrifugation for 10 minutes at approximately 3000×g at +4° C. within 20 minutes from sampling. After blood sampling, mice were terminated. Aβ40 and Aβ42 levels in plasma were analyzed by commercial ELISA kit obtained from Biosource and Innogenetics, respectively.\nThe concentrations of Fc-Nep in plasma and in the formulations were assayed according to the procedures described in Example 20. The exposure in plasma was analysed in samples from non-treated animals (blank) and in samples from animals treated with M550426."}, "[3]": {"assay": "Observations of animal health (Example 25)", "type": "in vivo, C57BL/6 mice", "settings": "5 mg/kg single i.v., up to 168 hours", "description": "20-21 weeks old female C57BL/6 mice (8 mice/group) received vehicle or hFc-Nep at 5 mg/kg as a single intravenous injection and Aβ40 was analysed at different time points after injection (between 1.5-168 hours, i.e., up to 1 week). The γ-secretase inhibitor M-550426 was given per orally and the animals were treated for 3 hours. A blank group was also included in the study. […] Blood collection, plasma processing and measurement of mouse Aβ40 levels in plasma were basically as described in Example 27."}}, "data": [{"molecule": "B1", "values": [{"measurement": "Specific activity (slope coefficient/pmol)", "setting": "[1]; expression with pCEP4 vector", "result": 13.4}, {"measurement": "Specific activity (slope coefficient/pmol)", "setting": "[1]; expression with pEAK10 vector", "result": 15.2}, {"measurement": "Reduction of mouse Aβ40 in plasma compared to vehicle", "setting": "mouse Aβ40; 1 mg/kg i.v., 1.5 hours, p=0.1638", "result": 17, "unit": "%"}, {"measurement": "Reduction of mouse Aβ40 in plasma compared to vehicle", "setting": "mouse Aβ40; 1 mg/kg i.v., 3 hours, p<0.005", "result": 36, "unit": "%"}, {"measurement": "Reduction of mouse Aβ40 in plasma compared to vehicle", "setting": "mouse Aβ40; 5 mg/kg i.v., 1.5 hours, p<0.0001", "result": 76, "unit": "%"}, {"measurement": "Reduction of mouse Aβ40 in plasma compared to vehicle", "setting": "mouse Aβ40; 5 mg/kg i.v., 3 hours, p<0.0001", "result": 72, "unit": "%"}, {"measurement": "Mean plasma exposure", "setting": "[2]; 1 mg/kg i.v.", "result": 9.8, "unit": "µg/mL"}, {"measurement": "Plasma exposure", "setting": "[2]; 1 mg/kg i.v.", "result": 7.6, "unit": "µg/mL"}, {"measurement": "Mean plasma exposure", "setting": "[2]; 5 mg/kg i.v.", "result": 33.6, "unit": "µg/mL"}, {"measurement": "Plasma exposure", "setting": "[2]; 5 mg/kg i.v.", "result": 27.3, "unit": "µg/mL"}, {"measurement": "Observations of the animal health", "setting": "[3]", "result": "no overt adverse effects"}]}]}
